Results reported in the supplement of paper PMC7877785.
± gives the uncertainty stated by the source.

Assay: self-splicing fitness, log relative to wild type (ln ratio); higher = more splicing; Tetrahymena group I intron in knt gene, E. coli kanamycin selection, DiMSum; sequences stand for … in CUCUCU…GGAGGGAAAAGUUAUCAGGCAUGCACCUGGUAGCUAGUCUUUAAACCAAUAGAUUGCAUCGGUUUAAAAGGCAAGACCGUCAAAUUGCGGGAAAGGGGUCAACAGCCGUUCAGUACCAAGUCUCAGGGGAAACUUUGAGAUGGCCUUGCAAAGGGUAUGGUAAUAAGCUGACGGACAUGGUCCUAACCACGCAGCCAAGUCCUAAGUCAACAGAUCUUCUGUUGAUAUGGAUGCAGUUCACAGACUAAAUGUCGGUCGGGGAAGAUGUAUUCUUCUCAUAAGAUAUAGUCGGACCUCUCCUUAAUGGGAGCUAGCGGAUGAAGUGAUGCAACACUGGAGCCGCUGGGAACUAAUUUGUAUGCGAAAGUAUAUUGAUUAGUUUUGGAGUACUCGUGGUCG
How it was run: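 Pooled colonies went to amplicon sequencing on an Illumina HiSeq 2500 after six replicate transformations. The plates were LB agar with 100 μg/mL carbenicillin, 50 μM IPTG and 0.2% rhamnose, with or without 25 μg/mL kanamycin, incubated overnight at 37°C or 30°C. The E. coli BL21(DE3) library had all eight P1ex-region intron nucleotides randomised, the intron placed in the knt kanamycin-resistance gene on pET-22b(+). DiMSum fitness is the error-weighted combination of replicate fold changes, kanamycin against none, normalised to wild type.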

Row | Sequence | self-splicing fitness (ln) (30 °C) | self-splicing fitness (ln) (37 °C)
1 | GACCAGCAAUAUUACGCUAA | -1.18 ± 0.078 | 0.196 ± 0.093
2 | AGUCAGCAAUAUUACGACGC | 0.144 ± 0.1 | 0.499 ± 0.13
3 | CCAAAGCAAUAUUACGUGAA | -4.04 ± 0.17 | -3.18 ± 0.27
4 | ACGUAGCAAUAUUACGGGGC | -4.11 ± 0.14 | -2.73 ± 0.12
5 | ACGGAGCAAUAUUACGGGCA | -2.06 ± 0.42 | –
6 | AAGAAGCAAUAUUACGAACU | -0.3 ± 0.091 | 0.86 ± 0.11
7 | UUACAGCAAUAUUACGCCCU | -2.55 ± 0.24 | -0.401 ± 0.26
8 | GCAUAGCAAUAUUACGUCUC | -1.85 ± 0.14 | -0.552 ± 0.11
9 | CCGAAGCAAUAUUACGUGAC | – | -1.4 ± 0.2
10 | CUACAGCAAUAUUACGCCUG | -1.43 ± 0.1 | -0.209 ± 0.097
11 | GAUCAGCAAUAUUACGCUUA | -0.551 ± 0.12 | 0.0926 ± 0.13
12 | ACCGAGCAAUAUUACGGUUA | -1.33 ± 0.18 | -1.85 ± 0.17
13 | CUGGAGCAAUAUUACGCGCU | -3.54 ± 0.47 | –
14 | GACAAGCAAUAUUACGGUCG | -1.22 ± 0.076 | -0.0208 ± 0.09
15 | GCUAAGCAAUAUUACGUUGC | -2.26 ± 0.46 | -1.71 ± 0.38
16 | ACUCAGCAAUAUUACGAGCG | -0.49 ± 0.061 | -0.185 ± 0.071
17 | GGAAAGCAAUAUUACGACGA | -0.602 ± 0.13 | 0.0265 ± 0.16
18 | GGGGAGCAAUAUUACGCAAG | -3.34 ± 0.26 | -1.28 ± 0.2
19 | CGGAAGCAAUAUUACGGUUA | -1.96 ± 0.18 | -2.25 ± 0.2
20 | CGACAGCAAUAUUACGACAC | -1.96 ± 0.13 | -1.97 ± 0.22
21 | UAAUAGCAAUAUUACGCUCU | -1.03 ± 0.14 | -0.42 ± 0.18
22 | AUUAAGCAAUAUUACGUCCG | -1.47 ± 0.13 | -0.734 ± 0.17
23 | AACCAGCAAUAUUACGCGUU | -3.77 ± 0.15 | -1.56 ± 0.15
24 | CGGUAGCAAUAUUACGGGUC | -4.51 ± 0.46 | -4.33 ± 0.39
25 | UUUGAGCAAUAUUACGUGAA | -1.97 ± 0.17 | -1.82 ± 0.17

Row | Sequence | self-splicing fitness (ln) (30 °C) | self-splicing fitness (ln) (37 °C)
26 | ACCAAGCAAUAUUACGCUUA | -1.86 ± 0.11 | -1.08 ± 0.11
27 | ACCAAGCAAUAUUACGCGAG | -2.46 ± 0.076 | -1.27 ± 0.072
28 | CGAAAGCAAUAUUACGAACG | -1.08 ± 0.13 | -0.291 ± 0.14
29 | AUUUAGCAAUAUUACGAGCU | -1.88 ± 0.17 | -0.00846 ± 0.15
30 | UUCCAGCAAUAUUACGCUAU | -2.04 ± 0.085 | -0.605 ± 0.083
31 | GUUGAGCAAUAUUACGUCAA | -2.76 ± 0.28 | –
32 | GCAAAGCAAUAUUACGUCGA | -1.83 ± 0.091 | -0.578 ± 0.094
33 | UGUGAGCAAUAUUACGGGUG | -2.6 ± 0.14 | -1.9 ± 0.13
34 | AGGGAGCAAUAUUACGCCAA | – | -2.67 ± 0.38
35 | GAUGAGCAAUAUUACGAGCU | -3.65 ± 0.26 | -2.11 ± 0.24
36 | UUGCAGCAAUAUUACGUCAU | -2.15 ± 0.098 | -1.13 ± 0.1
37 | AUCAAGCAAUAUUACGCGGC | -3.39 ± 0.33 | -1.98 ± 0.29
38 | UAUAAGCAAUAUUACGCAUG | -0.714 ± 0.12 | -0.154 ± 0.13
39 | GCGGAGCAAUAUUACGAUCA | -2.43 ± 0.41 | -1.56 ± 0.32
40 | CAAUAGCAAUAUUACGACCU | -3.2 ± 0.24 | -0.203 ± 0.2
41 | ACUGAGCAAUAUUACGGAUG | -2.58 ± 0.12 | -1.67 ± 0.14
42 | UCUAAGCAAUAUUACGUCAU | -3.45 ± 0.2 | -2.4 ± 0.16
43 | AAGCAGCAAUAUUACGGUAG | -3.38 ± 0.15 | -3.25 ± 0.2
44 | UAGGAGCAAUAUUACGUAGC | -3.98 ± 0.24 | -2.74 ± 0.21
45 | GUUCAGCAAUAUUACGUAGC | -0.047 ± 0.087 | -0.0432 ± 0.11
46 | GCGUAGCAAUAUUACGUUCU | -2.08 ± 0.13 | -1.38 ± 0.15
47 | CGCGAGCAAUAUUACGGCAG | -0.761 ± 0.1 | -0.243 ± 0.13
48 | CAUAAGCAAUAUUACGGACC | -3.27 ± 0.31 | -3.87 ± 0.23
49 | GUCUAGCAAUAUUACGAACG | -1.83 ± 0.2 | -1.13 ± 0.23
50 | UACCAGCAAUAUUACGUGAA | -1.06 ± 0.053 | -0.463 ± 0.076

Row | Sequence | self-splicing fitness (ln) (30 °C) | self-splicing fitness (ln) (37 °C)
51 | CCCAAGCAAUAUUACGUAAC | -3.6 ± 0.18 | -2.52 ± 0.21
52 | CUCCAGCAAUAUUACGCUCC | -2.73 ± 0.3 | –
53 | AUCUAGCAAUAUUACGCGAG | -1.92 ± 0.14 | -0.183 ± 0.1
54 | UAUCAGCAAUAUUACGUGGU | -3.97 ± 0.2 | -0.774 ± 0.13
55 | GAUAAGCAAUAUUACGAGCC | -1.5 ± 0.17 | -1.27 ± 0.23
56 | AUUAAGCAAUAUUACGUGCC | -0.626 ± 0.096 | -1.07 ± 0.14
57 | CUUCAGCAAUAUUACGUUAG | -1.66 ± 0.071 | -1.25 ± 0.094
58 | ACAGAGCAAUAUUACGUUUG | -3.85 ± 0.25 | -3.07 ± 0.24
59 | GAGAAGCAAUAUUACGCAGC | -3.2 ± 0.38 | -1.48 ± 0.26
60 | UUUCAGCAAUAUUACGGAGC | -3.25 ± 0.36 | -3.28 ± 0.43
61 | CCAUAGCAAUAUUACGUGCA | -2.77 ± 0.19 | -3.02 ± 0.24
62 | ACGUAGCAAUAUUACGCUCU | -0.479 ± 0.12 | -0.414 ± 0.15
63 | CCCAAGCAAUAUUACGGGUG | -3.36 ± 0.093 | -1.79 ± 0.077
64 | UGACAGCAAUAUUACGGUAG | -0.921 ± 0.067 | -0.41 ± 0.074
65 | AAUGAGCAAUAUUACGAGCG | -3.49 ± 0.38 | -1.56 ± 0.3
66 | AAAAAGCAAUAUUACGAGCA | -0.699 ± 0.076 | -0.722 ± 0.091
67 | CACAAGCAAUAUUACGGUGG | -1.99 ± 0.05 | -1.06 ± 0.062
68 | UGGCAGCAAUAUUACGGGAC | -2.88 ± 0.45 | -2.37 ± 0.49
69 | UCCUAGCAAUAUUACGUUAC | -3.48 ± 0.25 | -2.09 ± 0.25
70 | CCCUAGCAAUAUUACGUCGU | -3.42 ± 0.2 | -1.43 ± 0.19
71 | UACGAGCAAUAUUACGAUGU | -3.35 ± 0.32 | -2.46 ± 0.34
72 | GGGGAGCAAUAUUACGGUAC | – | 0.506 ± 0.25
73 | AUUUAGCAAUAUUACGGGGC | -3.54 ± 0.41 | –
74 | CUUCAGCAAUAUUACGUUCA | -3.63 ± 0.26 | -2.04 ± 0.23
75 | AGCUAGCAAUAUUACGGACG | -0.719 ± 0.075 | -0.105 ± 0.1

Row | Sequence | self-splicing fitness (ln) (30 °C) | self-splicing fitness (ln) (37 °C)
76 | CGUUAGCAAUAUUACGGUUU | -3.84 ± 0.34 | -2.44 ± 0.21
77 | CUGUAGCAAUAUUACGAAUA | -2.54 ± 0.37 | -2.82 ± 0.48
78 | GUUGAGCAAUAUUACGAGUA | – | -1.41 ± 0.39
79 | AGUCAGCAAUAUUACGAGUA | -2.3 ± 0.13 | -1.31 ± 0.1
80 | CUUCAGCAAUAUUACGGACA | -3.26 ± 0.35 | -2.3 ± 0.26
81 | AUCUAGCAAUAUUACGCCGU | -0.173 ± 0.089 | -0.324 ± 0.1
82 | GUUAAGCAAUAUUACGACUG | -2.57 ± 0.2 | -2.53 ± 0.4
83 | GCACAGCAAUAUUACGCCUG | -1.28 ± 0.087 | -0.89 ± 0.1
84 | AUCCAGCAAUAUUACGUAGA | -0.783 ± 0.073 | -0.0552 ± 0.12
85 | CGGCAGCAAUAUUACGCCGG | -2.15 ± 0.17 | -2.16 ± 0.23
86 | AUCCAGCAAUAUUACGGACC | -1.71 ± 0.13 | 0.282 ± 0.13
87 | GCCAAGCAAUAUUACGCAAC | -1.98 ± 0.13 | -1.32 ± 0.16
88 | AUUUAGCAAUAUUACGUAGA | -2.08 ± 0.15 | -2.48 ± 0.23
89 | GGCGAGCAAUAUUACGCAAG | -2.96 ± 0.34 | -2.3 ± 0.24
90 | CGCCAGCAAUAUUACGCUAU | -3.43 ± 0.15 | -3.01 ± 0.21
91 | GCCCAGCAAUAUUACGGAGG | -4.2 ± 0.15 | -2.51 ± 0.13
92 | CCUCAGCAAUAUUACGACGA | -4.04 ± 0.33 | -2.86 ± 0.3
93 | CAGAAGCAAUAUUACGUGAC | -3 ± 0.22 | -2.18 ± 0.21
94 | CGGCAGCAAUAUUACGACCC | -0.681 ± 0.19 | 0.752 ± 0.29
95 | AGUGAGCAAUAUUACGGGCA | -1.22 ± 0.3 | -1.73 ± 0.15
96 | AAGGAGCAAUAUUACGUAGC | – | -2.18 ± 0.42
97 | CCUAAGCAAUAUUACGUAAU | -2.38 ± 0.18 | -0.984 ± 0.29
98 | GCGGAGCAAUAUUACGCGUC | -3.26 ± 0.18 | -3.2 ± 0.25
